doi:10.1101/2022.08.17.504273 (bioRxiv, 2022)
Substitutions are numbered along the chain they refer to.

T1: mouse JIP3^185–505 (JIP3 186-505) (mouse, UniProt Q9ESN9-5 186-505)
T1 sequence: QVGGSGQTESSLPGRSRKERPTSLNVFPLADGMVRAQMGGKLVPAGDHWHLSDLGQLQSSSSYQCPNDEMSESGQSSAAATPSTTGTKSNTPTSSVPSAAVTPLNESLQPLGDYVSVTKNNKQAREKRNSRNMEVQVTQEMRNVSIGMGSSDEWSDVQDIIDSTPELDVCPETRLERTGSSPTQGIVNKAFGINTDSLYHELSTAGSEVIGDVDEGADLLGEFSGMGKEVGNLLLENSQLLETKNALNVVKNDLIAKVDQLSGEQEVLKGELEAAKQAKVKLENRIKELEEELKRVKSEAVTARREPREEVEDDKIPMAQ

T2: mouse JIP3 186-505_L383A/E386A (mouse, UniProt Q9ESN9-5 186-505, L383A | E386A)
T2 sequence: T1 sequence with L198A, E201A

T3: JIP3 RH1 domain (JIP3 1-108) (mouse, UniProt Q9ESN9-5 1-108)
T3 sequence: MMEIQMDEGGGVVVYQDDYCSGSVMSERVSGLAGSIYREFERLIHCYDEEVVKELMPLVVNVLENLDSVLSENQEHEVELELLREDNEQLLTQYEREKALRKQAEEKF

B1: human Arf6 (12-175_Q67L) (domain or fragment)
chain: KEMRILMLGLDAAGKTTILYKLKLGQSVTTIPTVGFNVETVTYKNVKFNVWDVGGLDKIRPLWRHYYTGTQGLIFVVDCADRDRIDEARQELHRIINDREMRDAIILIFANKQDLPDAMKPHEIQEKLGLTRIRDRNWYVQPSCATSGDGLYEGLTWLTSNYKS
B2: MBP-DIC-N (dynein intermediate chain 1-76) (domain or fragment)
chain: MSDKSELKAELERKKQRLAQIREEKKRKEEERKKKETDQKKEAVAPVQEESDLEKKRREAEALLQSMGLTPESPIV
B3: GST-JIP3^563–585 (JIP3^helix construct) (domain or fragment)
chain: SVQEKKKSTIWQFFSRLFSSSSS
B4: JIP3^1–185 (domain or fragment)
chain: MMEIQMDEGGGVVVYQDDYCSGSVMSERVSGLAGSIYREFERLIHCYDEEVVKELMPLVVNVLENLDSVLSENQEHEVELELLREDNEQLLTQYEREKALRKQAEEKFIEFEDALEQEKKELQIQVEHYEFQTRQLELKAKNYADQISRLEERESEMKKEYNALHQRHTEMIQTYVEHIERSKMQ
B5: GST-CC1B (GST-Psc-DCTN1(residues 350-547)-GFP-6xHis) (domain or fragment)
chain: GSDGAASSYQLKQLEEQNARLKDALVRMRDLSSSEKQEHVKLQKLMEKKNQELEVVRQQRERLQEELSQAESTIDELKEQVDAALGAEEMVEMLTDRNLNLEEKVRELRETVGDLEAMNEMNDELQENARETELELREQLDMAGARVREAQKRVEAAQETVADYQQTIKKYRQLTAHLQDVNRELTNQQEASVERQQQ
B6: LIS1 (full length human) (natural protein)
chain: MVLSQRQRDELNRAIADYLRSNGYEEAYSVFKKEAELDVNEELDKKYAGLLEKKWTSVIRLQKKVMELESKLNEAKEEFTSGGPLGQKRDPKEWIPRPPEKYALSGHRSPVTRVIFHPVFSVMVSASEDATIKVWDYETGDFERTLKGHTDSVQDISFDHSGKLLASCSADMTIKLWDFQGFECIRTMHGHDHNVSSVAIMPNGDHIVSASRDKTIKMWEVQTGYCVKTFTGHREWVRMVRPNQDGTLIASCSNDQTVRVWVVATKECKAELREHEHVVECISWAPESSYSSISEATGSETKKSGKPGPFLLSGSRDKTIKMWDVSTGMCLMTLVGHDNWVRGVLFHSGGKFILSCADDKTLRVWDYKNKRCMKTLNAHEHFVTSLDFHKTAPYVVTGSVDQTVKVWECR
B7: LIS1^mut (natural protein)
chain: MVASQEARDELNRAIADYLRSNGYEEAYSVFKKEAELDVNEELDKEYAGLLEEEWAAVAELAEEVMELRSKLNEAKEEFTSGGPLGQKRDPKEWIPRPPEKYALSGHRSPVTRVIFHPVFSVMVSASEDATIKVWDYETGDFERTLKGHTDSVQDISFDHSGKLLASCSADMTIKLWDFQGFECIRTMHGHDHNVSSVAIMPNGDHIVSASRDKTIKMWEVQTGYCVKTFTGHREWVRMVRPNQDGTLIASCSNDQTVRVWVVATKECKAELREHEHVVECISWAPESSYSSISEATGSETKKSGKPGPFLLSGSRDKTIKMWDVSTGMCLMTLVGHDNWVRGVLFHSGGKFILSCADDKTLRVWDYKNKRCMKTLNAHEHFVTSLDFHKTAPYVVTGSVDQTVKVWECR
B8: LIS1-N (residues 1-90) (domain or fragment)
chain: MVLSQRQRDELNRAIADYLRSNGYEEAYSVFKKEAELDVNEELDKKYAGLLEKKWTSVIRLQKKVMELESKLNEAKEEFTSGGPLGQKRD
B9: JIP3^1–560 (domain or fragment)
chain: MMEIQMDEGGGVVVYQDDYCSGSVMSERVSGLAGSIYREFERLIHCYDEEVVKELMPLVVNVLENLDSVLSENQEHEVELELLREDNEQLLTQYEREKALRRQAEEKFIEFEDALEQEKKELQIQVEHYEFQTRQLELKAKNYADQISRLEERESEMKKEYNALHQRHTEMIQTYVEHIERSKMQQVGGNSQTESSLPGRRKERPTSLNVFPLADGTVRAQIGGKLVPAGDHWHLSDLGQLQSSSSYQCPQDEMSESGQSSAAATPSTTGTKSNTPTSSVPSAAVTPLNESLQPLGDYGVGSKNSKRAREKRDSRNMEVQVTQEMRNVSIGMGSSDEWSDVQDIIDSTPELDMCPETRLDRTGSSPTQGIVNKAFGINTDSLYHELSTAGSEVIGDVDEGADLLGEFSVRDDFFGMGKEVGNLLLENSQLLETKNALNVVKNDLIAKVDQLSGEQEVLRGELEAAKQAKVKLENRIKELEEELKRVKSEAIIARREPKEEAEDVSSYLCTESDKIPMAQRRRFTRVEMARVLMERNQYKERLMELQEAVRWTEMIRASRE
B10: dynein light intermediate chain (natural protein)
chain: MAPVGVEKKLLLGPNGPAVAAAGDLTSEEEEGQSLWSSILSEVSTRARSKLPSGKNILVFGEDGSGKTTLMTKLQGAEHGKKGRGLEYLYLSVHDEDRDDHTRCNVWILDGDLYHKGLLKFAVSAESLPETLVIFVADMSRPWTVMESLQKWASVLREHIDKMKIPPEKMRELERKFVKDFQDYMEPEEGCQGSPQRRGPLTSGSDEENVALPLGDNVLTHNLGIPVLVVCTKCDAVSVLEKEHDYRDEHLDFIQSHLRRFCLQYGAALIYTSVKEEKNLDLLYKYIVHKTYGFHFTTPALVVEKDAVFIPAGWDNEKKIAILHENFTTVKPEDAYEDFIVKPPVRKLVHDKELAAEDEQVFLMKQQSLLAKQPATPTRASESPARGPSGSPRTQGRGGPASVPSSSPGTSVKKPDPNIKNNAASEGVLASFFNSLLSKKTGSPGSPGAGGVQSTAKKSGQKTVLSNVQEELDRMTRKPDSMVTNSSTENEA
B11: GCN4-WD40-SNAP (other)
chain: GSGSVKQLEDKVEELLSKNAHLENEVARLKKLVSGGPLGQKRDPKEWIPRPPEKYALSGHRSPVTRVIFHPVFSVMVSASEDATIKVWDYETGDFERTLKGHTDSVQDISFDHSGKLLASCSADMTIKLWDFQGFECIRTMHGHDHNVSSVAIMPNGDHIVSASRDKTIKMWEVQTGYCVKTFTGHREWVRMVRPNQDGTLIASCSNDQTVRVWVVATKECKAELREHEHVVECISWAPESSYSSISEATGSETKKSGKPGPFLLSGSRDKTIKMWDVSTGMCLMTLVGHDNWVRGVLFHSGGKFILSCADDKTLRVWDYKNKRCMKTLNAHEHFVTSLDFHKTAPYVVTGSVDQTVKVWECR

Experiments:
[1] = molecular target: T1, mouse JIP3^185–505 (JIP3 186-505); test: pull-down
[2] = molecular target: T2, mouse JIP3 186-505_L383A/E386A; test: pull-down
[3] = molecular target: B5; test: pull-down
[4] = molecular target: GST-CC1A/B (GST-Psc-DCTN1(residues 214-547)-GFP-6xHis) (human (by the printed UniProt entry), UniProt Q14203-1 214-547); test: pull-down
[5] = molecular target: T3, JIP3 RH1 domain (JIP3 1-108); test: pull-down
[6] = molecular target: B10; test: cryo-EM structure
[7] = molecular target: B6; test: pull-down
[8] = molecular target: the molecule itself; test: cryo-EM structure
[9] = molecular target: the molecule itself; test: SEC-MALS
[10] = molecular target: dynactin pointed end complex (ZZ-TEV-Arp11, p62, p25, p27) (human, UniProt Q9NZ32;Q9UJW0-1;Q9BTE1;O00399); test: SEC
Chain of dynactin pointed end complex (ZZ-TEV-Arp11, p62, p25, p27) (Q9NZ32 whole entry, chain 1 of 4): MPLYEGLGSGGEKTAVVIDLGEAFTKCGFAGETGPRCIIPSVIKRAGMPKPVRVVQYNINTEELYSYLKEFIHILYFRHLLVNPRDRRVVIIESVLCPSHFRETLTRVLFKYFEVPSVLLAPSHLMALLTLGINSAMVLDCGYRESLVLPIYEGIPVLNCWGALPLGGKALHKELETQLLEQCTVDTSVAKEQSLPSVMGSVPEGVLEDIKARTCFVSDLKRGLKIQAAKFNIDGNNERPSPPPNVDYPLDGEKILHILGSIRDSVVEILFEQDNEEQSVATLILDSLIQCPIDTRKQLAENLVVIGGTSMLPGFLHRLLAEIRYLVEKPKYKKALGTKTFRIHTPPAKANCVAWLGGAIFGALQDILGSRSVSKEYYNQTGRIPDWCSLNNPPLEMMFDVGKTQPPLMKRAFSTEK
Chain of dynactin pointed end complex (ZZ-TEV-Arp11, p62, p25, p27) (Q9UJW0 whole entry, chain 2 of 4): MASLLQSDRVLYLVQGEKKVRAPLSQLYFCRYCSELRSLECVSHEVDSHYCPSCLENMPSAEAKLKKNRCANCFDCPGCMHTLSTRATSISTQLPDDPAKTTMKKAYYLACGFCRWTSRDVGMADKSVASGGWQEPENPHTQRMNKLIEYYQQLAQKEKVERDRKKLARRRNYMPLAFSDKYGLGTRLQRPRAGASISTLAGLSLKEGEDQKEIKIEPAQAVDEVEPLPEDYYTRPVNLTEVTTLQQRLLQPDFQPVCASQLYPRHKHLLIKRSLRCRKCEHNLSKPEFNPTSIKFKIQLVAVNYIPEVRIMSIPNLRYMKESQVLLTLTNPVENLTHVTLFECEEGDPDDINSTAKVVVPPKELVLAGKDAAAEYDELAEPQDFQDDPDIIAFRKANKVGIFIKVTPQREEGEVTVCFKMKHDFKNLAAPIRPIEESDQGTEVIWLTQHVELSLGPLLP
Chain of dynactin pointed end complex (ZZ-TEV-Arp11, p62, p25, p27) (Q9BTE1 whole entry, chain 3 of 4): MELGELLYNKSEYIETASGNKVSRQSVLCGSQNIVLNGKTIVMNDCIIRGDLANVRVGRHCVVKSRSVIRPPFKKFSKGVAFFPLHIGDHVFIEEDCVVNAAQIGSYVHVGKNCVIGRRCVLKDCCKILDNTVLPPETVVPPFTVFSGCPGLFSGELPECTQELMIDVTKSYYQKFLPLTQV
Chain of dynactin pointed end complex (ZZ-TEV-Arp11, p62, p25, p27) (O00399 whole entry, chain 4 of 4): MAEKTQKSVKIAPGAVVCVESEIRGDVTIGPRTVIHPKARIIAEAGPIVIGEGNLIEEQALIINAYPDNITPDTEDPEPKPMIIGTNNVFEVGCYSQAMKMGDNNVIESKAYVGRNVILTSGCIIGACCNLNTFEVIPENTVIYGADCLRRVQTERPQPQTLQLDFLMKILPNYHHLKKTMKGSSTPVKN

[11] = molecular target: B9; test: cryo-EM structure

Binder: B1
- binding result [1]: binds
- binding result [2]: binds

Binder: B2
- binding result [3]: binds
- binding result [4]: binds

Binder: B3
- binding result [5]: binds

Binder: B4
- binding result [6]: binds

Binder: B5
- binding result [7]: binds

Binder: B6
- binding result [8]: binds

Binder: B7
- stoichiometry N [9]: 2

Binder: B8
- binding result [3]: binds

Binder: B9
- binding result [10]: binds

Binder: B10
- binding result [11]: binds

Binder: B11
- stoichiometry N [9]: 2
